T1: chimera B
T1 construct: human IL-17RA extracellular domain with mouse Domain B; column head 75-96; also called Construct B
T1 IL-17RA extracellular domain with FLAG-polyHis tag: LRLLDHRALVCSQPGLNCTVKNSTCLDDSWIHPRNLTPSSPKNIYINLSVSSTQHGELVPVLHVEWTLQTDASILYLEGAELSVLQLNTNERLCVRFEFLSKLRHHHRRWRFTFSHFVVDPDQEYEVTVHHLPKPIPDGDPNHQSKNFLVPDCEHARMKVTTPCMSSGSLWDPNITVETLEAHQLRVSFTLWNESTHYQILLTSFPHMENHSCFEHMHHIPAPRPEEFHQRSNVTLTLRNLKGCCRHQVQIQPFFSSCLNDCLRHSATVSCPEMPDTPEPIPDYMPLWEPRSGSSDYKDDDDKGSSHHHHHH

T2: chimera H
T2 construct: human IL-17RA extracellular domain with mouse Domains B and E; also called Construct H
T2 IL-17RA extracellular domain with FLAG-polyHis tag: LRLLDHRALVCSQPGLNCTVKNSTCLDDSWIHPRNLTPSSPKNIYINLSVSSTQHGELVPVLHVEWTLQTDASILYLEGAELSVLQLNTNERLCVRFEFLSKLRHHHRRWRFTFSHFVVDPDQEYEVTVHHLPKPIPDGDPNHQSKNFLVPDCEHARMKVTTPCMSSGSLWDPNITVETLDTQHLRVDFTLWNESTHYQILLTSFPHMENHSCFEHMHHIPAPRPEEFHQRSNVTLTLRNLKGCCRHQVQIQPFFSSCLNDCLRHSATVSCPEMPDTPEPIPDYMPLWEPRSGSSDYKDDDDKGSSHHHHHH

B1: AMH21/AML21 (antibody, IgG2, V domains shown)
VH: EVQLVESGGGSVQPGGSLRLSCAASGFTFSSYSMNWVRQAPGKGLEWVSIISSRSSIIHYADSVKGRFTISRDNAKNSLYLQMNSLRDEDTAVYYCARPKVGGGMDVWGQGTTVTVSS
VL: DIQMTQSPSSLSASVGDRVTITCRASQGISNYLAWYQQKPGKFPELLIYAASTLQSGVPSRFSGSGSGTDFTLTISSLQPEDVATYYCQKYNRAPFTFGPGTKVDIK
notes: human mAb from IgG2 XenoMouse mice; also called AM-21; antibody Q
B2: AMH20/AML20 (antibody, IgG2, V domains shown)
VH: EVQLVESGGGLVQPGGSLRLSCAASGFTFSSYSMNWVRQAPGKGLEWVSFISARSSTIYYADSVKGRFTISRDNAKNSLYLQMNSLRDEDTAVYYCARPKVGGGMDVWGQGTTVTVSS
VL: DIQMTQSPSSLSASVGDRVTITCRASQGISNYLAWYQQKPGKFPELLIYAASTLQSGVPSRFSGSGSGTDFTLTISSLQPEDVATYYCQKYNRAPFTFGPGTKVDIK
notes: human mAb from IgG2 XenoMouse mice; also called AM-20; antibody R
B3: AMH18/AML18 (antibody, IgG2, V domains shown)
VH: QVQLVQSGAEVKKPGASVKVSCKASGYSFTDYYMHWVRQAPGQGLEWMGWMHPNSGGTDLAQRFQGRVTMTRDTSISTAYMELSRLRSDDTAVYYCARGGYCSTLSCSFYWYFDLWGRGTLVTVSS
VL: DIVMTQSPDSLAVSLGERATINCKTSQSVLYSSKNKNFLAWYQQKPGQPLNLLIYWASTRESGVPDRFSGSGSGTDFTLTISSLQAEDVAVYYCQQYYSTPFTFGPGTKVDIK
notes: human mAb from IgG2 XenoMouse mice; also called AM-18; antibody G

Legend:
[1] = molecular target: human IL-17RA, full-length, on cells (human, UniProt Q96F46 33-866); assay: cell-based or functional assay
[2] = molecular target: human IL-17RA (form used in the low resolution BIAcore not stated) (human, UniProt Q96F46 33-320, limits assumed); assay: low resolution BIAcore, subcloned hybridoma
[3] = molecular target: T3, huIL-17RA-FLAG-polyHis (human, UniProt Q96F46 33-320); assay: binning; IL-17RA held by bead mAb A
T3 construct: also called IL-17RA-FLAG-pHis; wild-type IL-17RA

[4] = molecular target: T3, huIL-17RA-FLAG-polyHis; assay: binning; IL-17RA held by bead mAb B
[5] = molecular target: T3, huIL-17RA-FLAG-polyHis; assay: binning; IL-17RA held by bead mAb E
[6] = molecular target: T3, huIL-17RA-FLAG-polyHis; assay: binning; IL-17RA held by bead mAb F
[7] = molecular target: T3, huIL-17RA-FLAG-polyHis; assay: binning; IL-17RA held by bead mAb H
[8] = molecular target: T3, huIL-17RA-FLAG-polyHis; assay: binning; IL-17RA held by bead mAb P
[9] = molecular target: T3, huIL-17RA-FLAG-polyHis; assay: binning; IL-17RA held by bead mAb G
[10] = molecular target: T3, huIL-17RA-FLAG-polyHis; assay: binning; IL-17RA held by bead mAb J
[11] = molecular target: T3, huIL-17RA-FLAG-polyHis; assay: binning; IL-17RA held by bead mAb K
[12] = molecular target: T3, huIL-17RA-FLAG-polyHis; assay: binning; IL-17RA held by bead mAb L
[13] = molecular target: T3, huIL-17RA-FLAG-polyHis; assay: binning; IL-17RA held by bead mAb O
[14] = molecular target: T3, huIL-17RA-FLAG-polyHis; assay: binning; IL-17RA held by bead mAb R
[15] = molecular target: T4, chimera A; assay: Bio-Plex titration on His-captured chimera;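 note: binding of anti-IL-17RA antibodies (4-fold titration across about 5 logs, 1 h) to His-captured IL-17RA chimeras on multiplexed beads, MFI read as percent of maximal wild-type human IL-17RA signal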
T4 construct: human IL-17RA extracellular domain with mouse Domain A; column head aa 38-51; also called Construct A

[16] = molecular target: T5, chimera L; assay: Bio-Plex titration on His-captured chimera;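 note: binding of anti-IL-17RA antibodies (4-fold titration across about 5 logs, 1 h) to His-captured IL-17RA chimeras on multiplexed beads, MFI read as percent of maximal wild-type human IL-17RA signal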
T5 construct: human IL-17RA extracellular domain with mouse Domains B and F; B+F; also called Construct L

[17] = molecular target: T1, chimera B; assay: Bio-Plex titration on His-captured chimera;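 note: binding of anti-IL-17RA antibodies (4-fold titration across about 5 logs, 1 h) to His-captured IL-17RA chimeras on multiplexed beads, MFI read as percent of maximal wild-type human IL-17RA signal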
[18] = molecular target: T6, chimera C; assay: Bio-Plex titration on His-captured chimera;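 note: binding of anti-IL-17RA antibodies (4-fold titration across about 5 logs, 1 h) to His-captured IL-17RA chimeras on multiplexed beads, MFI read as percent of maximal wild-type human IL-17RA signal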
T6 construct: human IL-17RA extracellular domain with mouse Domain C; also called Construct C

[19] = molecular target: T7, chimera E; assay: Bio-Plex titration on His-captured chimera
T7 construct: human IL-17RA extracellular domain with mouse Domain E; also called Construct E

[20] = molecular target: T8, chimera G; assay: Bio-Plex titration on His-captured chimera
T8 construct: human IL-17RA extracellular domain with mouse Domains A and E; also called Construct G

[21] = molecular target: T2, chimera H; assay: Bio-Plex titration on His-captured chimera
[22] = molecular target: T9, chimera I; assay: Bio-Plex titration on His-captured chimera
T9 construct: human IL-17RA extracellular domain with mouse Domains C and E; also called Construct I

[23] = molecular target: D152R IL-17RA mutant (human, UniProt Q96F46 33-320); assay: Bio-Plex titration on His-captured D152R mutant
[24] = molecular target: T3, huIL-17RA-FLAG-polyHis; assay: Bio-Plex, His-tagged wild-type huIL-17RA on pentaHis beads, antibody titration, PE anti-human IgG Fc

Row | Binder | Kd [2] | normalized MFI [3] | normalized MFI [4] | normalized MFI [5] | normalized MFI [6] | normalized MFI [7] | normalized MFI [8] | normalized MFI [9] | normalized MFI [10] | normalized MFI [11] | normalized MFI [12] | normalized MFI [13] | normalized MFI [14] | EC50 [15] | EC50 [17] | EC50 [18] | EC50 [19] | EC50 [20] | EC50 [21] | EC50 [22] | other results
1 | B1 | 16.7 nM | 9530 | 1900 | 1170 | 2200 | 10200 | 2160 | 6280 | 23 | -181 | -58 | 175 | 34 | 0.018 nM | 0.017 nM | 0.03 nM | 0.026 nM | 0.025 nM | 0.025 nM | 0.032 nM | IL-17A/HFF bioassay IC50, subclone 4 [1]: 2.3 nM; IL-17A/HFF bioassay IC50, subclone 5 [1]: 3.1 nM; IL-17A/HFF bioassay IC50, subclone 6 [1]: 3.3 nM; EC50 [16]: 0.025 nM; binding result [23]: no binding (tested: log [Ab] about 0.5 (about 3 nM)); EC50 [24]: 0.018 nM
2 | B2 | 11.6 nM | 6800 | 1060 | 666 | 1240 | 8300 | 1410 | 4020 | 26 | -29 | 15 | 140 | 25 | 0.023 nM | 0.02 nM | 0.04 nM | 0.027 nM | 0.027 nM | 0.033 nM | 0.042 nM | IL-17A/HFF bioassay IC50, subclone 7 [1]: 8.1 nM; IL-17A/HFF bioassay IC50, subclone 8 [1]: 6.6 nM; IL-17A/HFF bioassay IC50, subclone 9 [1]: 6.7 nM; EC50 [16]: 0.027 nM; binding result [23]: no binding (tested: log [Ab] about 0.5 (about 3 nM)); EC50 [24]: 0.022 nM
3 | B3 | 14.9 nM | -162 | 1300 | 260 | 304 | 4000 | 4490 | 480 | 2900 | 8970 | 3590 | 5380 | 5110 | 0.052 nM | 0.063 nM | 0.052 nM | 0.067 nM | 0.052 nM | 0.088 nM | 0.059 nM | IL-17A/HFF bioassay IC50, subclone 14 [1]: 0.44 nM; IL-17A/HFF bioassay IC50, subclone 15 [1]: 0.4 nM; IL-17A/HFF bioassay IC50, subclone 16 [1]: 0.17 nM; binding result [16]: no binding; EC50 (read off the curve) [23]: ~0.07 nM; EC50 [24]: 0.061 nM
